The values that follow come from US20250136695A1 (PERSONGEN BIOTHERAPEUTICS SUZHOU, published 2025).

Numbering of substitutions follows the chain as printed. Names may count otherwise. Bounds are passed on as bounds.

Test [1] deals with T1, PDL1 expressed on recombinant CHO cells (CHO-K1/PDL1; aAPC CHO-PDL1) (UniProt Q9NZQ7 19-290, limits assumed). As to the kind of experiment: cell-based or functional assay.
The target in another test is T2, PDL1-His (UniProt Q9NZQ7 19-238, limits assumed).
T2 construct: not shown: His tag
As to the kind of experiment: BLI (OCTET R2), Fc-tagged antibody on protein A probes, PDL1-His as mobile phase.

Test [2] deals with T1, PDL1 expressed on recombinant CHO cells …. As to the kind of experiment: cell-based or functional assay. The source holds these as a separate data set.
The target is the same in test [3]. As to the kind of experiment: cell-based or functional assay. The source holds these as a separate data set.

T1 sequence (Q9NZQ7 19-290 limits assumed): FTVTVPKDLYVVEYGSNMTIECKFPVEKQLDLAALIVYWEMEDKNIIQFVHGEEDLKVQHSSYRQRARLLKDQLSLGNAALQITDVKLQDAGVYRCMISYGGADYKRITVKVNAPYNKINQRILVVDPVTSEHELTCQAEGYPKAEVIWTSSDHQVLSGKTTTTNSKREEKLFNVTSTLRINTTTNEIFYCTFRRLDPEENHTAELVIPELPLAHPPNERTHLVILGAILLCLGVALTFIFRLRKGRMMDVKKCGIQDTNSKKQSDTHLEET
T2 sequence (Q9NZQ7 19-238 limits assumed): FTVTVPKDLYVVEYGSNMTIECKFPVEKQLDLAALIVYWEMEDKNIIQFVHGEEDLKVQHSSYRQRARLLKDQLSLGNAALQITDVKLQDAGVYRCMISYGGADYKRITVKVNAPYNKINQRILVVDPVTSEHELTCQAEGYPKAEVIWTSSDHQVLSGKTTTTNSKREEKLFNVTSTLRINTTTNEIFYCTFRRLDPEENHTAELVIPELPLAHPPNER

B1: 17-A06-G4S-23-G3 (Fc fusion)
chain: MAQVKLEESGGGLVQAGGSLRLSCVASGRSFITYAVGWFRQAPGKEREFVASINWSGAMTYYTDSVNGRFAISRDNAKNTVYLQMNNLKLEDTAVYYCASTISAVTPTNGYQNWGQGTQVTVSSGGGGSMAAVQLVESGGGLVQAGGSLRLSCVASGRSFITYAVGWFRQAPGKEREFVASVNWSGAMTYYADAVNGRFTISRDNAKNTVYLQMNNLKLEDTAVYYCAATISAVTPTNGYQNWGQGTQVTVSS
notes: also called bivalent antibody 17-A06-G4S-23-G3; bivalent PDL1 antibody; not shown: Fc tag ('Fc-tagged')
As a reminder, the Kd is the concentration at which binding is half-saturated. Read a high Kd as a looser complex. The koff is a measure of how fast the partners let go of each other. What is called kon is the rate constant with which the complex forms. Higher therefore signals faster complex formation. On to B1, for which the “EC50 of the PD1/PDL1 Block Assay (luciferase fold of induction, Jurkat-PD-1-NFAT-Luc + aAPC CHO-PDL1)” value in test [1] worked out at 2.06 µg/mL. In the test with PDL1-His, this molecule displayed a dissociation constant (Kd) of 4.2 nM, a koff of 0.000649 s⁻¹ and an on-rate constant (kon) of 155000 M⁻¹ s⁻¹.

B2: 17-A06 (VHH fused to human IgG1 Fc) (Fc fusion, not shown: a dimerising Fc or GST)
chain: MAQVKLEESGGGLVQAGGSLRLSCVASGRSFITYAVGWFRQAPGKEREFVASINWSGAMTYYTDSVNGRFAISRDNAKNTVYLQMNNLKLEDTAVYYCASTISAVTPTNGYQNWGQGTQVTVSS
B2: in test [2], the “EC50 of PD-1/PDL1 blocking against Nivolumab ([…] µg/mL), same reporter assay” value (shortened to “EC50 of PD-1/PDL1 blocking”) is above 0.322 µg/mL. Besides, the “EC50 of the PD1/PDL1 Block Assay (luciferase fold of induction, Jurkat-PD1-NFAT-Luc + aAPC CHO-PDL1); printed as 03-17-A06; the table gives no unit, the axis is in µg/mL” value in test [3] is 1.96 µg/mL.

B3: 23-G3 (VHH fused to human IgG1 Fc) (Fc fusion, not shown: a dimerising Fc or GST)
chain: B2 chain with Q3A, K5Q, E7V, I53V, T63A, S65A, A71T, S100A
B3: the “EC50 of PD-1/PDL1 blocking” value in test [2] is above 0.322 µg/mL. The “EC50 of the PD1/PDL1 Block Assay (luciferase fold of induction, Jurkat-PD1-NFAT-Luc + aAPC CHO-PDL1); printed as 03-23-G3; the table gives no unit, the axis is in µg/mL” value in test [3] was found to be 3.45 µg/mL.

B4: 29-H9 (VHH fused to human IgG1 Fc) (Fc fusion, not shown: a dimerising Fc or GST)
chain: RLQLVESGGGLVQAGGSLRLSCAASGFTFSTYAMSWYRGVPEKERELVAFISSDGGGTTYRDSVKGRFTISRDNGKNTVYLQMNSLKPEDTGVYYCARGLAQIWGQGTQVTVSS
Regarding B4, in test [2], the “EC50 of PD-1/PDL1 blocking” value is above 0.322 µg/mL. In test [3], the “EC50 of the PD1/PDL1 Block Assay (luciferase fold of induction, Jurkat-PD1-NFAT-Luc + aAPC CHO-PDL1); printed as 03-29-H9; the table gives no unit, the axis is in µg/mL” value was determined as 1.44 µg/mL.

B5: 17-A06-G4S-29-H9 (Fc fusion)
chain: MAQVKLEESGGGLVQAGGSLRLSCVASGRSFITYAVGWFRQAPGKEREFVASINWSGAMTYYTDSVNGRFAISRDNAKNTVYLQMNNLKLEDTAVYYCASTISAVTPTNGYQNWGQGTQVTVSSGGGGSRLQLVESGGGLVQAGGSLRLSCAASGFTFSTYAMSWYRGVPEKERELVAFISSDGGGTTYRDSVKGRFTISRDNGKNTVYLQMNSLKPEDTGVYYCARGLAQIWGQGTQVTVSS
notes: also called bivalent antibody 17-A06-G4S-29-H9; bivalent PDL1 antibody; not shown: Fc tag ('Fc-tagged')
Regarding B5, the “EC50 of the PD1/PDL1 Block Assay (luciferase fold of induction, Jurkat-PD-1-NFAT-Luc + aAPC CHO-PDL1)” value in test [1] was 1.35 µg/mL. In addition, in the test with PDL1-His, binding was characterised by a dissociation constant (Kd) of 2.73 nM, the koff was 0.00048 s⁻¹ and the on-rate constant (kon) amounted to 176000 M⁻¹ s⁻¹.

B6: 23-G3-G4S-29-H9 (Fc fusion)
chain: B5 chain with Q3A, K5Q, E7V, I53V, T63A, S65A, A71T, S100A
notes: also called bivalent antibody 23-G3-G4S-29-H9; bivalent PDL1 antibody; not shown: Fc tag ('Fc-tagged')
In the test with PDL1-His, B6 returned a Kd of 1.92 nM, a dissociation rate constant (koff) of 0.000455 s⁻¹ and a kon of 238000 M⁻¹ s⁻¹.
